Literature values in patent publication US20250341526A1, “NOVEL DYES” (Quantum-Si Incorporated, priority 2024, published 2025).

B1: PS533: amino acid recognition protein, SEQ ID NO: 161 (protein, listed as Contarinia nasturtii)
chain: MVCGRVFKMNEPFYSCRECGMDPTCVLCVNCFKQSAHRHHKYKMGTSAGGGCCDCGDNEAWKQDHYCDEHTK
B2: PS528: amino acid recognition protein, SEQ ID NO: 156 (protein, listed as Kluyveromyces lactis)
chain: MHSKFNHAGRICGAKFRVGEPIYRCKECSFDDTCVLCVNCFNPKDHVGHHVYTSICTEFNNGICDCGDKEAWNHELNCKGAED
B3: PS524: amino acid recognition protein, SEQ ID NO: 152 (protein, listed as Drosophila ficusphila)
chain: MVCGKVFKNGEPTYSCRECGVDPTCVLCVNCFKRSAHRFHKYKMSTSGGGGCCDCGDDEAWKKDHYCQLHLA
B4: PS531: amino acid recognition protein, SEQ ID NO: 159 (protein, listed as Musca domestica)
chain: MVCGKVFKIGEPTYSCRECGMDQTCVLCVNCFKQSAHRYHKYKMSTSGGGGCCDCGDEEAWKKDHYCEEHLR
B5: PS527: amino acid recognition protein, SEQ ID NO: 155 (protein, listed as Mizuhopecten yessoensis)
chain: MLCGKVFKYGEPTYSCRDCANDPTCVLCIDCFQKSAHKKHRYKMSTSGGGGYCDCGDSEAWKTAPFCSNHKA
B6: PS514: amino acid recognition protein, SEQ ID NO: 142 (protein, listed as Tribolium castaneum)
chain: MVCGRVFKLGEPTYSCRECGMDNTCVLCVNCFKNSEHRFHKYKMGTSQGGGCCDCGDVEAWKKAPFCDVHIA
B7: PS535: amino acid recognition protein, SEQ ID NO: 163 (protein, listed as Mus musculus)
chain: MLCGRVFKVGEPTYSCRDCAVDPTCVLCMECFLGSIHRDHRYRMTTSGGGGFCDCGDTEAWKEGPYCQKHKL
B8: PS516: amino acid recognition protein, SEQ ID NO: 144 (protein)
chain: MLCGKVFKTGEPTYSCRDCANDPTCVLCIDCFQNGAHKNHRYKMNTSGGGGYCDCGDQEAWTSHPFCNLHSP
modifications: Crassostrea gigas
B9: PS510: amino acid recognition protein, SEQ ID NO: 138 (protein, listed as Camponotus floridanus)
chain: MICGRMFKMGEPTYSCRQCGMDSTCVLCVDCFKQSAHRNHKYKMGTSSGGGCCDCGDTEAWKNEPFCKIHLA
B10: PS515: amino acid recognition protein, SEQ ID NO: 143 (protein, listed as Wasmannia auropunctata)
chain: MICGKMFKIGEPTYSCRECGMDSTCVLCVDCFKQSAHRNHKYKMGTSSGGGCCDCGDTEAWKKEPFCKTHVV
B11: PS530: amino acid recognition protein, SEQ ID NO: 158 (protein, listed as Acropora millepora)
chain: MLCGKVFKVGEPTYSCRDCGYDNTCVLCINCFQKSIHKNHHYKMNTSGGGGVCDCGDVEAWKEGEACEIHQQ
B12: PS509: amino acid recognition protein, SEQ ID NO: 137 (protein)
chain: MICGHGFKTGEPTYSCRDCATDPTCVLCISCFQKSPHREHRYKMSASGGGGYCDCGDPEAWKIEPFCEQHKP
modifications: Lottia gigantean
B13: PS523: amino acid recognition protein, SEQ ID NO: 151 (protein, listed as Saccharomycetaceae sp.)
chain: MAKSHRHTGRNCGRAFQPGEPLYRCQECAYDDTCVLCISCFNPDDHVNHHVSTHICNELHDGICDCGDAEAWNVPLHCKAEED
B14: PS511: amino acid recognition protein, SEQ ID NO: 139 (protein, listed as Habropoda laboriosa)
chain: MICGKVFKMGEATYSCKECGVDPTCVLCADCFKQSAHRHHKYRMGTSSGGGFCDCGDIEAWKKEPFCNTHLA
B15: PS508: amino acid recognition protein, SEQ ID NO: 136 (protein)
chain: MLCGRVFKEGETVYSCRDCAIDPTCVLCIECFQKSVHKSHRYKMHASAGGGFCDCGDLEAWKTGPCCSQHDP
modifications: Anabarilius graham
B16: PS512: amino acid recognition protein, SEQ ID NO: 140 (protein, listed as Mastacembelus armatus)
chain: MLCGRVFKEGETVYSCRDCAIDPTCVLCMDCFQDSVHKSHRYKMHASAGGGFCDCGDVEAWKIGPYCSKHDP
B17: PS526: amino acid recognition protein, SEQ ID NO: 154 (protein, listed as Maylandia zebra)
chain: MLCGRVFKEGETVYSCRDCAIDPTCVLCMDCFQDSVHKSHRYKMHASSGGGFCDCGDVEAWKIGPYCSKHDP
B18: PS520: amino acid recognition protein, SEQ ID NO: 148 (protein, listed as Monopterus albus)
chain: MLCGRVFKEGETVYSCRDCAIDPTCVLCMDCFQDSVHKSHRYKMHASSGGGFCDCGDVEAWKIGPCCSKHDP
B19: PS518: amino acid recognition protein, SEQ ID NO: 146 (protein, listed as Nilaparvata lugens)
chain: MVCGRVFKMGEPSYHCRECGMDATCVLCVDCFKKSSHRNHKYKMGTSIGGGCCDCGDVEAWKTEPYCEVHIA
B20: PS532: amino acid recognition protein, SEQ ID NO: 160 (protein, listed as Schizosaccharomyces cryophilus)
chain: MSCGRIFKKGEVFYRCKTCSVDSNSALCVKCFRATDHHGHETSFTISAGSGGCCDCGNSAAWIRDMPCKIHNR
B21: PS521: amino acid recognition protein, SEQ ID NO: 149 (protein)
chain: MLCGRVFRSGEPTYSCRDCAVDPTCVLCIDCFNNGAHRKHKYRMSTSSGGGYCDCGDKEAWKTDPLCEIHRK
modifications: Lingula anatine
B22: PS536: amino acid recognition protein, SEQ ID NO: 164 (protein, listed as Aphis gossypii)
chain: MVCGRVFKMGEPTYNCRECGMDSTCVLCVDCFKRSPHKNHKYKMGTSYGGGCCDCGDVEAWKHDPYCQTHKL
B23: PS519: amino acid recognition protein, SEQ ID NO: 147 (protein, listed as Manduca sexta)
chain: MLCGRVFKQGEPAYSCRECGMDNTCVLCVECFKVSAHRHHKYKMGQSGGGGCCDCGDTEAWKRDPFCELHAA
B24: PS522: amino acid recognition protein, SEQ ID NO: 150 (protein, listed as Vombatus ursinus)
chain: MLCGKVFKSGETTYSCRDCAIDPTCVLCMNCFQSSVHKNHRYKMHTSTGGGFCDCGDTEAWKTGPFCTIHEP
B25: PS525: amino acid recognition protein, SEQ ID NO: 153 (protein, listed as Mus musculus)
chain: MLCGKVFKSGETTYSCRDCAIDPTCVLCMDCFQSSVHKNHRYKMHTSTGGGFCDCGDTEAWKTGPFCVDHEP
B26: PS529: amino acid recognition protein, SEQ ID NO: 157 (protein)
chain: MLCGKVFKGGETTYSCRDCAIDPTCVLCMDCFQNSIHKNHRYKMHTSTGGGFCDCGDTEAWKTGPLCANHEP
modifications: Chelonia mydas
B27: PS507: amino acid recognition protein, SEQ ID NO: 135 (protein, listed as Sparassis crispa)
chain: MPCGHIFKKGESCFRCKDCALDDSCVLCSKCFEATDHANHNVSFFIAQQSGGCCDCGDIEAWLVPIDCPFHPV
B28: PS513: amino acid recognition protein, SEQ ID NO: 141 (protein, listed as Pyrenophora seminiperda)
chain: MPCGHIFKNGEATYRCKTCTADDTCVLCARCFDASDHEGHQVFVSVSPGNSGCCDCGDDEAWVRPVHCNIHSA
B29: PS517: amino acid recognition protein, SEQ ID NO: 145 (protein)
chain: MMCGRVFKMGEPTYSCRECGVDSTCVLCVGCFQQSAHRDHKYKMGTSGGGGCCDCGDTEAWKRDPFCEIHMV
modifications: Harpegnathos saltator
B30: PS534: amino acid recognition protein, SEQ ID NO: 162 (protein)
chain: MKCGHIFRKGEVFYRCKTCSVDSNSALCVKCFRATSHKDHETSFTVSAGSGGCCDCGNAAAWIGDVSCKIHSH
modifications: Schizosaccharomyces pombe

system: amino acid at a terminal position of a polypeptide; details: Table 2; amino acid at terminal position (phosphotyrosine also internal); inferred from literature and/or demonstrated by the inventors; cited from earlier work

Binding Pref., K, R, H:
B1
B2
B3
B4
B5
B6
B7
B8
B9
B10
B11
B12
B13
B14
B15
B16
B17
B18
B19
B20
B21
B22
B23
B24
B25
B26
B27
B28
B29
B30
